Substrate: Cc1cc(=O)oc2cc(O[C@@H]3OC[C@@H](O[C@@H]4OC[C@@H](O)[C@H](O)[C@H]4O)[C@H](O)[C@H]3O)ccc12
Test: Substrate hydrolysis kinetics
Type: biochemical, A. aculeatus
Conditions: other: fluorogenic 4MU substrate, pH 5.0

B1: …_127619 (Aspergillus aculeatus ATCC 16872) (protein)
chain: VGLDQAAVAKGLQYFGTATDNPELTDIPYVTQLNNTADFGQITPGNSMKWDATEPSQGTFTFTNGDVIADLAEGNGQYLRCHTLVWYNQLPSWVTSGTWTNATLTAALKNHITNVVSHYKGKCLHWDVVNEALNDDGTYRTNIFYTTIGEAYIPIAFAAAAAADPDAKLFYNDYNLEYGGAKAASARAIVQLVKNAGAKIDGVGLQAHFSVGTVPSTSSLISVLQSFTALGVEVAYTEADVRILLPTTATTLAQQSSDFQALVQSCVQTTGCVGFTIWDWTDKYSWVPSTFSGYGAALPWDENLVKKPAYNGLLAG
  Km: 279 µM

Reference: publication PMC6598175
